# Ends that are not written are not given here.
# How the values were obtained:
# rat MCAO model = assay: Therapeutic effect on rat MCAO model (cerebral infarction volume, TTC staining); format: in vivo
# [1] = Stability analysis of P5 salt powders (HPLC area normalization); settings: powder, 10 days
# Protocol: The three P5 salts in Example 3 in their powder form were subjected to treatments with irradiation (3000 Lx)+ultraviolet (UV), high temperature (60° C.), and high humidity (75% RH) for 10 days. After the treatments, the powders were dissolved in water to prepare a solution at a concentration of 2 mg/ml. 10 μl of each solution was accurately measured and injected into a liquid chromatograph, and the chromatograms were recorded. Relevant substances were calculated according to the area normalization method to analyze the content and the number of impurity species.
# (§1) Mobile phase: A 0.065% TFA-water; B 0.05% TFA-ACN
# (§2) Detection wavelength λ=220 nm; flow rate V=1.0 ml/min; temperature T=36° C.
# Injection volume Inj=10 ul
# (§3) Gradient conditions: 0-30 min, B %=5-65%
# [2] = Stability analysis of P5 salt solutions (HPLC area normalization); settings: aqueous solution 2 mg/ml, irradiation (3000 Lx), 10 days
# Protocol: The solutions were subjected to treatments with irradiation (3000 Lx) and high temperature (60° C.) for 10 days. After the treatments, 10 μl of each solution was accurately measured and injected into a liquid chromatograph, and the chromatograms were recorded. The relevant substances were calculated according to the area normalization method to analyze the content and the number of impurity species.
# high performance liquid chromatograph (Agilent, 1260 EZChrom); chromatographic column (Agilent, ZORBAX 300SB-C18 (4.6*250 mm, 5 μm) SN: USHH008416); analytical balance (Sartoris, BT25S); filter membrane (Millipore, 0.45 μm PTFE); acetonitrile (MREDA); water (Aqua); TFA (MREDA); and comprehensive drug stability test box (three-box type) (Shanghai Zuocheng Experimental Instrument Co. Ltd, item no. SHH-3SDT).
# as §1, §2
# Injection volume Inj=10 μl
# as §3
# [3] = irradiation (3000 Lx) + ultraviolet
substance,measurement,setting,value
P5-TFA: trifluoroacetate salt of chimeric peptide P5 (YGRKKRRQRRRYEKLLDTEI) (also: trifluoroacetate salt),cerebral infarction volume as compared with the model group,"rat MCAO model; 10 mg/kg tail vein injection 1 hour after ischemia, 24 h after administration, p<0.01",significantly reduced
same,effect in reducing cerebral infarction volume as compared with positive control drug NBP,"rat MCAO model; 10 mg/kg vs NBP 2.5 mg/kg, tail vein injection 1 hour after ischemia, p<0.05",significantly superior
same,Number of impurity species,[1]; high humidity (75% RH),1
same,Percentage of main peak area,[1]; high humidity (75% RH),99.73%
same,Number of impurity species,[1]; high temperature (60° C.),3
same,Percentage of main peak area,[1]; high temperature (60° C.),99.56%
same,Number of impurity species,[1]; [3],6
same,Percentage of main peak area,[1]; [3],98.34%
same,Number of impurity species,[2],10
same,Percentage of main peak area,[2],97.28%

# — patent US11767344B2, “Pharmaceutically acceptable salts of polypeptides and methods of inhibiting the interaction between psd-95 and n-methyl-d-aspartic acid receptor (nmdar)” (BIOCELLS (BEIJING) BIOTECH CO., LTD., priority 2017, dated 2023)
